# Assays:
# [1] = target: purified recombinant His-tagged PDK4 (Abcam), Q16654
# [2] = target: purified recombinant His-tagged PDK3 (Abcam), Q15120
# [3] = target: Flag-tagged T346A PDK1 mutant
# [4] = target: purified recombinant His-tagged PDK1 (Abcam)
# [5] = target: Flag-tagged wild type (WT) PDK1 (not specifically T346-phosphorylated: from normoxic PC3 cells, or dephosphorylated before the kinase assay)
# [6] = target: purified recombinant His-tagged PDK2 (Abcam), Q15119
# Chain of purified recombinant His-tagged PDK1 (Abcam) (chain, as listed by the source): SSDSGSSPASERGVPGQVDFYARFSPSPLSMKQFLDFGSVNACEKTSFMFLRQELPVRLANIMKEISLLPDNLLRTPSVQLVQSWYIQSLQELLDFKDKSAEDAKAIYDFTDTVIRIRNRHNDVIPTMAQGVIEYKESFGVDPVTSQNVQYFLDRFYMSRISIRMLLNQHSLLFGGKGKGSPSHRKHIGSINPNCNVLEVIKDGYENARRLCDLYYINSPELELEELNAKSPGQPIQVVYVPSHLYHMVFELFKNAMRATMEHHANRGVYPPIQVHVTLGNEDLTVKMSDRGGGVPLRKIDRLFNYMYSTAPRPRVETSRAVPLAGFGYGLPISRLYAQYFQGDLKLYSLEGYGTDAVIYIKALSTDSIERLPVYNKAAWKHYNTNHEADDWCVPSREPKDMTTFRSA
# Chain of purified recombinant His-tagged PDK4 (Abcam), Q16654 (Q16654 10-411): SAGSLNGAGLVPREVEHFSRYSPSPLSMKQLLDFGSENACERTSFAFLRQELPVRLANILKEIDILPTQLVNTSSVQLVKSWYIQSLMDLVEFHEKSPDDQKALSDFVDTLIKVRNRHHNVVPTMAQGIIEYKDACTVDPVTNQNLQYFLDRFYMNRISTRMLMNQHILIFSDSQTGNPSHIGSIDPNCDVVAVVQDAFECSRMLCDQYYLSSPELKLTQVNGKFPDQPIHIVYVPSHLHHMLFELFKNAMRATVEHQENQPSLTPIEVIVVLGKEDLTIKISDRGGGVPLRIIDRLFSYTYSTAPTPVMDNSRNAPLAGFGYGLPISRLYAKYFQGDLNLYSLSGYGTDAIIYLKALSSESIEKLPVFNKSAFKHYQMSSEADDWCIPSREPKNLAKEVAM
# Chain of purified recombinant His-tagged PDK3 (Abcam), Q15120 (Q15120 whole entry, looked up): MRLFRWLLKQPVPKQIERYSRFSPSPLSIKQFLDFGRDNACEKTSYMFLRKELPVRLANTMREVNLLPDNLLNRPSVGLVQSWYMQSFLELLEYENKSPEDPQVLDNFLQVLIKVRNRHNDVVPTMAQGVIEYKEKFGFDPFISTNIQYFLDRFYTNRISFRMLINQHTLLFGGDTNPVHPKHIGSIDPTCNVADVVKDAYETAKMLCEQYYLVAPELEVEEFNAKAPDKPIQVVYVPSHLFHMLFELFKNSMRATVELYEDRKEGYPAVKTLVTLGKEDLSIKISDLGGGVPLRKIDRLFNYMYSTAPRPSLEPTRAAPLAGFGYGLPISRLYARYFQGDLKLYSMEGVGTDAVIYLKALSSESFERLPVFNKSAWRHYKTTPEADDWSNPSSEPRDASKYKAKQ
# Chain of Flag-tagged wild type (WT) PDK1 (not specifically T346-phosphorylated: from normoxic PC3 cells, or dephosphorylated before the kinase assay) (chain, as listed by the source): as the sequence (chain, as listed by the source) above
# Chain of Flag-tagged T346A PDK1 mutant (chain, as listed by the source T346A): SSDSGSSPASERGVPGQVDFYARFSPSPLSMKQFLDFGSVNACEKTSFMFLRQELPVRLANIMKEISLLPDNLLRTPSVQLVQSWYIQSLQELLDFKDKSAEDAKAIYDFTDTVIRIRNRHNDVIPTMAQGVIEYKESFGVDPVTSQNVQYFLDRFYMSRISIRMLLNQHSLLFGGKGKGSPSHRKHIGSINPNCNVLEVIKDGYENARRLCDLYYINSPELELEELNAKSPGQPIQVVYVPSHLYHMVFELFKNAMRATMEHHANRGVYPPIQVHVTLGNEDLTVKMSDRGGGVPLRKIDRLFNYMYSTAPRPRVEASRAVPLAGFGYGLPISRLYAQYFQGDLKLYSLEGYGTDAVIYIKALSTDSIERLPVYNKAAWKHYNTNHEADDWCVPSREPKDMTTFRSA
protein,measurement,setting,value
kinase active Akt2 (SignalChem) (protein) MNEVSVIKEGWLHKRGEYIKTWRPRYFLLKSDGSFIGYKERPEAPDQTLPPLNNFSVAECQLMKTERPRPNTFVIRCLQWTTVIERTFHVDSPDEREEWMRAIQMVANSLKQRAPGEDPMDYKCGSPSDSSTTEEMEVAVSKARAKVTMNDFDYLKLLGKGTFGKVILVREKATGRYYAMKILRKEVIIAKDEVAHTVTESRVLQNTRHPFLTALKYAFQTHDRLCFVMEYANGGELFFHLSRERVFTEERARFYGAEIVSALEYLHSRDVVYRDIKLENLMLDKDGHIKITDFGLCKEGISDGATMKTFCGTPEYLAPEVLEDNDYGRAVDWWGLGVVMYEMMCGRLPFYNQDHERLFELILMEEIRFPRTLSPEAKSLLAGLLKKDPKQRLGGGPSDAKEVMEHRFFLSINWQDVVQKKLLPPFKPQVTSEVDTRYFDDEFTAQSITITPPDRYDSLGLLELDQRTHFPQFSYSASIRE,"phosphorylation in a kinase assay, Western blotting with Akt cons Ab",[1],"related PDK2, PDK3 or PDK4 isoforms were unreactive"
same,"phosphorylation in a kinase assay, Western blotting with Akt cons Ab",[2],"related PDK2, PDK3 or PDK4 isoforms were unreactive"
same,"phosphorylation of Flag immune complexes in a kinase assay, Western blotting with Akt cons Ab",[3],but not a phosphorylation-defective Thr346→Ala (T346A) PDK1 mutant
same,"phosphorylation in a kinase assay, Western blotting with Akt cons Ab",[4],active Akt1 or Akt2 readily phosphorylated PDK1
same,phosphorylation site by LC-MS/MS of chymotrypsin digests after a kinase assay,[4],"Thr346 (T346) was identified ... as the sole phospho-amino acid modified by Akt1 or Akt2, compared to control"
same,"phosphorylation of Flag immune complexes in a kinase assay, Western blotting with Akt cons Ab",[5],active Akt2 phosphorylated wild type (WT) PDK1
same,"phosphorylation in a kinase assay, Western blotting with Akt cons Ab",[6],"related PDK2, PDK3 or PDK4 isoforms were unreactive"
